The results in this text go back to patent US20200332015A1 (NAMAB THERAPEUTICS, published 2020).

Experiment [1] addresses human PDL1-Fc chimeric protein (human, UniProt Q9NZQ7 19-238, limits assumed). In words: SPR T200, antigen-Fc captured, molecule as analyte. Here is the method: (§1) Affinity to PDL1 of the different species was determined by SPR measurements using a Biacore T200 device (GE Healthcare). An antibody specific for the Fc region of human IgGs was immobilized on a sensor chip (CM5 sensor chip, GE Healthcare) by amine-coupling. For all formats, with the exception of the Fc containing Morrison formats, PDL1-Fc chimeric protein from different species were captured by the immobilized antibody. Three-fold serial dilutions of the molecules specific for PDL1 (0.12-90 nM) were injected into the flow cells for three minutes and dissociation was monitored for 10 minutes. After each injection cycle, surfaces were regenerated with one injection of a 3 M MgCl₂ solution. The apparent dissociation (kd) and association (kₐ) rate constants and the apparent dissociation equilibrium constant (KD) were calculated using one-to-one Langmuir binding model. Affinity to CD137 of the different species was determined using the identical setup as for PDL1 with the exception that CD137-Fc chimeric proteins from different species were captured by the immobilized antibody.

The target in experiment [2] is T1, Fc tagged human CD137 (R&D Systems, cat. 838-4B-100) (human, UniProt Q07011 24-186).
T1 construct: also called CD137 Fc chimera; human CD137-Fc chimeric protein
Description: SPR T200, antigen-Fc captured, molecule as analyte. Here is the method:
as §1

For experiment [3], the target named is T2, mouse Fc-tagged mouse CD137 (R&D Systems, cat. 937-4B-050) (mouse, UniProt P20334 24-187).
T2 construct: also called mouse CD137-Fc chimeric protein
T2 sequence (looked up): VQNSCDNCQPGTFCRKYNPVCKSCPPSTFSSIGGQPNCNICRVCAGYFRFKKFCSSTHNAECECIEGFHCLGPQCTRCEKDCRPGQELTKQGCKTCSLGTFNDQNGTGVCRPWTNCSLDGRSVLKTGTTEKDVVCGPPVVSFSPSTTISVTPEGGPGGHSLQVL
In words: SPR T200, antigen-Fc captured, molecule as analyte. Here is the method:
as §1

The target in experiment [4] is T3, human CD137 expressed on Jurkat cells (human, UniProt Q07011 24-255). Description: cell-based or functional assay.
Experiment [5] deals with T3, human CD137 expressed on Jurkat cells. Description: cell-based or functional assay. The source holds these as a separate data set.
Experiment [6] has the same target. In words: cell-based or functional assay. This is another data set of the same source.

B1: PRO1125 (38-02-A04 scDb-i/33_03_G02 sc02 IF scDb-o) (bispecific antibody)
chain: DIQMTQSPSSLSASVGDRVTITCQASQSINDYLAWYQQKPGKSPKLLIYKASTLASGVPSRFSGSGSGTDFTLTISSLQPEDFATYYCQQGYIITDIDNVFGTGTKVTVLGGGGGSQVQLQESGPGLVKPSETLSLTCKVSGFSFSNSYWICWIRQPPGKGLEWIGCTFVGSSDSTYYANWAKGRVTISVDSSKNQFSLKLSSVTAADTAVYYCARHPSDAVYGYANNLWGQGTLVTVSSGGGGSGGGGSGGGGSGGGGSIQMTQSPSSLSASVGDRVTITCQASQSINNVLAWYQQKPGKAPKLLIYRASTLASGVPSRFSGSGSGTDFTLTISSLQPEDFATYYCQSSYGNYGDFGTGTKVTVLGGGGGSQVQLQESGPGLVKPSETLSLTCKVSGFSFSSGYDMCWVRQPPGKGLEWIACVVAGSVDITYYASWAKGRVTISVDSSKNQFSLKLSSVTAADTAVYFCARKDAYSDAFNLWGQGTLVTVSS
notes: scDb
One may read the Kd as a measure of binding affinity in units of concentration. A higher Kd goes with weaker binding. For orientation: koff means the rate constant with which the complex falls apart. A lower koff goes with slow dissociation. What is called kon is a measure of how fast the partners come together. The low end stands for slow association, the high end for fast association. In the case of B1, the results for the Kd in experiment [1], in experiment [2] and in experiment [3] were 0.067 nM, 3.7 nM and 510 nM, respectively. Also, the koff is 0.00011 s⁻¹ in experiment [1], 0.00075 s⁻¹ in experiment [2] and 0.27 s⁻¹ in experiment [3]. The association rate constant (kon) came out at 1.7e+06 M⁻¹ s⁻¹ in experiment [1], 200000 M⁻¹ s⁻¹ in experiment [2] and 540000 M⁻¹ s⁻¹ in experiment [3].

B2: PRO1058 (38_27_C05 scDb-i/33-03-G02 sc01 scDb-o/mxr HSA (23-13-A01-sc03, sk17sh4)) (other)
chain: DIQMTQSPSSLSASVGDRVTITCQASQSINDYLAWYQQKPGKAPKLLIYKASTLASGVPSRFSGSGSGTDFTLTISSLQPEDFATYYCQQGYIITDIDNVFGTGTKVTVLGGGGGSQVQLQESGPGLVKPSETLSLTCKVSGFSFNNDYDMCWIRQPPGKGLEWIGCIDTGDGSTYYASWAKGRVTISVDSSKNQFSLKLSSVTAADTAVYYCAREAASSSGYGMGYFDLWGQGTLVTVSSGGGGSGGGGSGGGGSGGGGSIQMTQSPSSLSASVGDRVTITCQSSQSVYDNNWLAWYQQKPGKAPKLLIYRASNLASGVPSRFSGSGSGTDFTLTISSLQPEDFATYYCQGTYLSSNWYWAFGTGTKVTVLGGGGGSQVQLQESGPGLVKPSETLSLTCKVSGFSFSSGYDMCWIRQPPGKGLEWIGCVVAGSVDITYYASWAKGRVTISVDSSKNQFSLKLSSVTAADTAVYYCARKDAYSDAFNLWGQGTLVTVSSGGGGSGGGGSVVMTQSPSSLSASVGDRVTITCQASQIISSRSAWYQQKPGQPPKLLIYQASKLASGVPSRFSGSGSGTDFTLTISSLQPEDFATYYCQCTYIDSNFGAFGGGTKLTVLGGGGGSGGGGSGGGGSGGGGSEVQLVESGGGLVQPGGSLRLSCAASGFSFSSSYWICWVRQAPGKGLEWVGCVFTGDGTTYYASWAKGRFTISRDNSKNTVYLQMNSLRAEDTATYFCARPVSVYYYGMDLWGQGTLVTVSS
notes: Trispecific scDb-scFv; also called PR01058
Take B2: in experiment [4], the “EC50 NFkB-luciferase, CHO-PDL1 cells, 6 h, + HSA” value was 70.9 ng/mL and the “Top of curve fit, NFkB-luciferase, CHO-PDL1 cells, 6 h, + HSA” value amounted to 40.1. In addition, in experiment [5], the “EC50 NFkB-luciferase, CHO-PDL1 cells, 24 h, + HBA (so in the source)” value came out at 121 ng/mL and the “Top of curve fit, NFkB-luciferase, CHO-PDL1 cells, 24 h, + HBA (so in the source)” value stood at 20.5. Besides, in experiment [6], the “max. activation, NF-kB reporter gene, CHO-PD-L1, 24h” value turned out to be 36.2% and the “rel. IC50 (urelumab/test), NF-kB reporter gene, CHO-PD-L1, 24h” value came out at 0.64 ratio. In experiment [1], this molecule displayed a Kd of 0.16 nM, a koff of 0.00019 s⁻¹ and a kon of 1.2e+06 M⁻¹ s⁻¹. Besides, in experiment [2], the Kd worked out at 1.2 nM, the koff worked out at 0.0021 s⁻¹ and the kon was 1.7e+06 M⁻¹ s⁻¹.

B3: PRO966 (= PRO1052) (38_27_C05 sc01 scDb-i/33-03-G02 sc01 scDb-o/19-01-H04-sc03 scFv) (other)
chain: DIQMTQSPSSLSASVGDRVTITCQASQSINDYLAWYQQKPGKAPKLLIYKASTLASGVPSRFSGSGSGTDFTLTISSLQPEDFATYYCQQGYIITDIDNVFGTGTKVTVLGGGGGSQVQLQESGPGLVKPSETLSLTCKVSGFSFNNDYDMCWIRQPPGKGLEWIGCIDTGDGSTYYASWAKGRVTISVDSSKNQFSLKLSSVTAADTAVYYCAREAASSSGYGMGYFDLWGQGTLVTVSSGGGGSGGGGSGGGGSGGGGSIQMTQSPSSLSASVGDRVTITCQSSQSVYDNNWLAWYQQKPGKAPKLLIYRASNLASGVPSRFSGSGSGTDFTLTISSLQPEDFATYYCQGTYLSSNWYWAFGTGTKVTVLGGGGGSQVQLQESGPGLVKPSETLSLTCKVSGFSFSSGYDMCWIRQPPGKGLEWIGCVVAGSVDITYYASWAKGRVTISVDSSKNQFSLKLSSVTAADTAVYYCARKDAYSDAFNLWGQGTLVTVSSGGGGSGGGGSIQMTQSPSSLSASVGDRVTITCQSSESVYSNNQLSWYQQKPGQPPKLLIYDASDLASGVPSRFSGSGSGTDFTLTISSLQPEDFATYYCAGGFSSSSDTAFGGGTKLTVLGGGGGSGGGGSGGGGSGGGGSEVQLVESGGGLVQPGGSLRLSCAASGFSLSSNAMGWVRQAPGKGLEYIGIISVGGFTYYASWAKGRFTISRDNSKNTVYLQMNSLRAEDTATYFCARDRHGGDSSGAFYLWGQGTLVTVSS
notes: Trispecific scDb-scFv
For the molecule B3, in experiment [1], the affinity, expressed as Kd, was 0.083 nM; the off-rate constant (koff) was found to be 0.00014 s⁻¹; the kon was 1.6e+06 M⁻¹ s⁻¹. Moreover, in experiment [2], binding was put at a Kd of 2.2 nM, the koff is 0.0022 s⁻¹ and the kon stood at 1e+06 M⁻¹ s⁻¹.

B4: PRO1134 (38-02-A04 sc01 scDb-i/33_03_G02 sc07 GL VH3 scDb-o) (bispecific antibody)
chain: DIQMTQSPSSLSASVGDAVTITCQASQSINDYLAWYQQKPGKSPKLLIYKASTLASGVPSRFSGSGSGTDFTLTISSLQPEDFATYYCQQGYIITDIDNVFGTGTKVTVLGGGGGSQVQLQESGPGLVKPSETLSLTCKVSGFSFSNSYWICWIRQPPGKGLEWIGCTFVGSSDSTYYANWAKGRVTISVDSSKNQFSLKLSSVTAADTAVYYCARHPSDAVYGYANNLWGQGTLVTVSSGGGGSGGGGSGGGGSGGGGSIQMTQSPSSLSASVGDRVTITCQASQSINNVLAWYQQKPGKAPKLLIYRASTLASGVPSRFSGSGSGTDFTLTISSLQPEDFATYYCQSSYGNYGDFGTGTKVTVLGGGGGSEVQLVESGGGLVQPGGSLRLSCAASGFSFSSGYDMCWVRQAPGKGLEWVGCVVAGSVDITYYASWAKGRFTISRDNSKNTVYLQMNSLRAEDTATYYCARKDAYSDAFNLWGPGTLVTVSS
notes: scDb
B4: the Kd came to 0.028 nM in experiment [1], 3.4 nM in experiment [2] and 420 nM in experiment [3]. For the same molecule, the koff was 7.6e-05 s⁻¹ in experiment [1], 0.00084 s⁻¹ in experiment [2] and 0.19 s⁻¹ in experiment [3]. Moreover, the kon was 2.8e+06 M⁻¹ s⁻¹ in experiment [1], 250000 M⁻¹ s⁻¹ in experiment [2] and 450000 M⁻¹ s⁻¹ in experiment [3].
